Here are results for seven molecules from patent US20220033515A1 (Genentech, published 2022).

The target in test [1] is T1, human death receptor 5 (hDR5) (human, UniProt O14763 56-210).
T1 construct: also called DR5 long; hDR5-1f
The experiment in a line: competitive phage ELISA.

For test [2], the target named is T2, human vascular endothelial growth factor (hVEGF) (human, UniProt P15692-4 27-191).
T2 construct: also called hVEGF-A; human vascular endothelial growth factor A
The experiment in a line: competitive phage ELISA.

In test [3] the target is T3, HER2 extracellular domain (Her2-ECD) (human, UniProt P04626 23-652).
T3 construct: extracellular domain; also called hHER2 extracellular domain (ECD)
The experiment in a line: single-spot competitive phage ELISA.

The target in test [4] is T4, hVEGF109 (human, UniProt P15692 214-315).
T4 construct: range 8-109; also called VEGF (8-109)
T4 sequence (looked up): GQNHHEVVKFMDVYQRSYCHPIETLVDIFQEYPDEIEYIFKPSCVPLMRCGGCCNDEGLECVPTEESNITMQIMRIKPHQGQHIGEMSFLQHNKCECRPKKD
Briefly: single-spot competitive phage ELISA.

Test [5] concerns the target T3, HER2 extracellular domain (Her2-ECD). Briefly: single-spot competitive phage ELISA. The source holds these as a separate data set.

Positions count from the first letter of the chain named. Read-outs that look alike come from different tables or passages of the source. Bounds are passed on as bounds.

B1: 4-6 (scFv, V domains shown)
VH: not shown
VL: DIQMTQSPSSLSASVGDRVTITCRASQSVSSAVAWYQQKPGKAPKLLIYSASSLYSGVPSRFSGSRSGTDFTLTISSLQPEDFATYYCQQYSSSPPTFGQGTKVEIK
Molecule B1 came in with an IC50 in test [1] of 16 nM.

B2: 4-2 (scFv, V domains shown)
VH: not shown
VL: DIQMTQSPSSLSASVGDRVTITCRASQRINSHTVAWYQQKPGKAPKLLIYWGSHLYSGVPSRFSGSGSGTDFTLTISSLQPEDFATYYCQQYSNRTPPTFGQGTKVEIK
Molecule B2 displayed an IC50 in test [1] of over 1000 nM.

B3: 4-4 (scFv, V domains shown)
VH: not shown
VL: DIQMTQSPSSLSASVGDRVTITCRASQVVSMTVAWYQQKPGKAPKLLIYGASSLYSGVPSRFSGSGSGTDFTLTISSLQPEDFATYYCQQYGSYSAPPTFGQGTKVEIK
Take B3: the IC50 in test [1] was over 1000 nM.

B4: H7 (scFv, V domains shown)
VH: not shown
VL: DIQMTQSPSSLSASVGDRVTITCRASQNVWDWVAWYQQKPGKAPKLLIYPASSLYSGVPSRFSGSGSGTDFTLTISSLQPEDFATYYCQQGWYIAPPTFGQGTKVEIK
notes: copies: 1 + 1
In test [2], B4 yielded an IC50 of 60 nM.

B5: H10 (scFv, V domains shown)
VH: not shown
VL: B4 VL with N28D, W30F, D31T, W32S, P50D, S53Y, G91R, W92Y, Y93I, I94W
The molecule B5 yielded an OD450 without competitor in test [3] of 0.04. In test [4], the “% signal, SSC +/- 50 or 100nM VEGF” value amounted to 49% and the OD450 without competitor was determined as 2.08. For the same molecule, in test [2], the IC50 came to 170 nM.

B6: H8 (scFv, V domains shown)
VH: not shown
VL: DIQMTQSPSSLSASVGDRVTITCRASQEIFPYYVAWYQQKPGKAPKLLIYLGSSLYSGVPSRFSGSGSGTDFTLTISSLQPEDFATYYCQQGWDGPPTFGQGTKVEIK
Regarding B6, the OD450 without competitor in test [3] came to 0.09. Besides, in test [4], the “% signal, SSC +/- 50 or 100nM VEGF” value came out at 71.2% and the OD450 without competitor was found to be 2.58. This molecule also came in with an IC50 in test [2] of 226 nM.

B7: H11 (scFv, V domains shown)
VH: not shown
VL: DIQMTQSPSSLSASVGDRVTITCRASQDIMLGSVAWYQQKPGKAPKLLIYWGSFLYSGVPSRFSGSGSGTDFTLTISSLQPEDFATYYCQQHYTTPPTFGQGTKVEIK
With B7, the OD450 without competitor in test [5] was 2.79.
